# Laboratory results taken from US20180237508A1.
# Tests used:
# [1] = molecular target: Human cytokeratin-8 (CK8) at the cell surface of human cancer cell lines (human) (UniProt P05787); test: flow cytometry, ISRECO-1 cells, MAb 5 ug/mL
# [2] = molecular target: Human cytokeratin-8 (CK8) at the cell surface of human cancer cell lines (human) (UniProt P05787); test: flow cytometry, HCT116-/- cells, MAb 5 ug/mL
# [3] = molecular target: Human cytokeratin-8 (CK8) at the cell surface of human cancer cell lines (human) (UniProt P05787); test: flow cytometry, MCF-7 cells, MAb 5 ug/mL
# [4] = molecular target: Human cytokeratin-8 (CK8) at the cell surface of human cancer cell lines (human) (UniProt P05787); test: flow cytometry, ISRECO-2 cells, MAb 5 ug/mL
# [5] = molecular target: Human cytokeratin-8 (CK8) at the cell surface of human cancer cell lines (human) (UniProt P05787); test: flow cytometry, HCT116 +/+ cells, MAb 5 ug/mL
# [6] = molecular target: Human cytokeratin-8 (CK8) at the cell surface of human cancer cell lines (human) (UniProt P05787); test: flow cytometry, HT29 cells, MAb 5 ug/mL
# [7] = molecular target: Human cytokeratin-8 (CK8) at the cell surface of human cancer cell lines (human) (UniProt P05787); test: flow cytometry, ISRECO-3 cells, MAb 5 ug/mL
# Chain of Human cytokeratin-8 (CK8) at the cell surface of human cancer cell lines (human) (P05787 whole entry): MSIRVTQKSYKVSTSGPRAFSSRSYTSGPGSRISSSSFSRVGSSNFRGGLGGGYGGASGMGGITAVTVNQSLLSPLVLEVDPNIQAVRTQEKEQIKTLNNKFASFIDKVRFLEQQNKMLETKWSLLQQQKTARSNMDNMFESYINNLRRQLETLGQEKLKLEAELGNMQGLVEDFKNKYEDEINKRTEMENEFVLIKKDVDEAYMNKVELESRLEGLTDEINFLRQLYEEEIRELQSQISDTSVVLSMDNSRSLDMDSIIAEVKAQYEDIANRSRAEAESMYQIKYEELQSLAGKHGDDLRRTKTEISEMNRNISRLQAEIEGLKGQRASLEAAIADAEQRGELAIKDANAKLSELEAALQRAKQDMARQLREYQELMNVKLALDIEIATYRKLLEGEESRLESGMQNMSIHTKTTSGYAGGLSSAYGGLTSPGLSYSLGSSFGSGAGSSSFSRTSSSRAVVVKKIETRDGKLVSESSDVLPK
% (labelled cells) [1],IFM [1],% (labelled cells) [2],IFM [2],% (labelled cells) [3],IFM [3],% (labelled cells) [4],IFM [4],% (labelled cells) [5],IFM [5],% (labelled cells) [6],IFM [6],% (labelled cells) [7],IFM [7],Substance
45%,562,38%,530,52%,462,23%,424,35%,554,30%,418,41%,402,"1E8 antibody (commercially available antibody ab28050, abcam)"
50%,553,28%,517,66%,476,26%,473,29%,527,17%,497,33%,541,"M20 antibody (commercially available antibody C5301, Sigma)"
